Assay: soluble on expression in E. coli; label from the status in PepcDB or PDB records

Sequence | soluble on expression in E. coli
GAVDLNDDVLDMGTGLRMQLYQCGDPRGRPVLYLHGMLDGMAPLEYLKHDFARRGLRVLAPVRPGYGLSEPVAGVEPGLRAMASHAVELIDRFALDRVAILGHMAGAVTGYVLRAGGDPRLAGMVAVAASGPLLRRAQLSGMARRQRMMAMTARWTPALLPFFVRAGIALIDSEEVGRFMDALYPPGSHERQVVDRLELAALMHAGYRFAAQSGTAGFEADALTMVSPWQRLSDGGTCPVVHLHGALDPVVPAAETARFAASISGASFRRFEDVGQFLIYERPDAVLDAIEAMLPPR | not soluble
MYIELRTSLEMFRSDLVDLEALANASRDALDQLPFVPKGPKMDDDEAHPNPDPESALRSGRLDSLVCATASAAQSALVTCVKLIDWAYEYEPDDEDDDDNDIVPMDDIDDDDEGGGSSGANGGGSNGSGRSGPPDNGDASAAPSVTADELANARPSRGGIALDLPPKPAPVA | not soluble
MGSDKIHHHHHHMSQAKATFSTEHDLNTSEQQAFWQSVVQDTLITADGITLAYMMVKHPQAHTAIVLSSGRVESYLKYQELVFDLYQQGYSVYAIDHRGQGLSDRMTINPHMGHVRRFNDYIDDFALFMQKKVLPQNDKQLMLLGHSMGGAIGTLYLKQHPDIFTAAAFSAPMYGIKLPMPKAFVRWLASKLDTTLNGGEPNYVLGGQNYKPVPFKGNELTHCQSRYQAYRDLYDAAPKLQLGSPTNRWLTESLDAADTCVLATAQIRTPILILQASEDKIVDNAAQNLAVSTHCQLKVIAGAAHEIFMEKDAYRNQALNYALDFFKRFAIKDEDKQAG | not soluble
MSLVPQGGPVLCRDEMEEWSASEAMLFEEALEKYGKDFNDIRQDFLPWKSLASIVQFYYMWKTTDRYIQQKRLKAAEAEGHHHHHH | not soluble
MEQFLDNIKDLEVTTVVRAQEALDKKETATFFIGRKTCPYCRKFAGTLSGVVAETKAHIYFINSEEPSQLNDLQAFRSRYGIPTVPGFVHITDGQINVRCDSSMSAQEIKDFAGL | soluble
MSVMADRLDNMDITVSSPDGNIEGRYRRRGELTLEFRGDAYEQYRQHTLEHQLARLATLLWTGYQREYDAAVSEVVGHPVKDERHLWDANRRRYREAQRATAASGMSAGGRVYIENTGMLSWHVVIRDGTLGELTAAEFASECLSAFDALWRDYRSKMAALRAEHYGLSFASKRRERQPRH | not soluble
MSTLGDLLAEHTVLPGSAVDHLHAVVGEWQLLADLSFADYLMWVRRDDGVLVCVAQCRPNTGPTVVHTDAVGTVVAANSMPLVAATFSGGVPGREGAVGQQNSCQHDGHSVEVSPVRFGDQVVAVLTRHQPELAARRRSGHLETAYRLCATDLLRMLAEGTFPDAGDVAMSRSSPRAGDGFIRLDVDGVVSYASPNALSAYHRMGLTTELEGVNLIDATRPLISDPFEAHEVDEHVQDLLAGDGKGMRMEVDAGGATVLLRTLPLVVAGRNVGAAILIRDVTEVKRRDRALISKDATIREIHHRVKNNLQTVAALLRLQARRTSNAEGREALIESVRRVSSIALVHDALSMSVDEQVNLDEVIDRILPIMNDVASVDRPIRINRVGDLGVLDSDRATALIMVITELVQNAIEHAFDPAAAEGSVTIRAERSARWLDVVVHDDGLGLPQGFSLEKSDSLGLQIVRTLVSAELDGSLGMRDARERGTDVVLRVPVGRRGRLML | not soluble
MSAEEQDTRSGGIQVIARAAELLRVLQAHPGGLSQAEIGERVGMARSTVSRILNALEDEGLVASRGARGPYRLGPEITRMATTVRLGVVTEMHPFLTELSRELDETVDLSILDGDRADVVDQVVPPQRLRAVSAVGESFPLYCCANGKALLAALPPERQARALPSRLAPLTANTITDRAALRDELNRIRVDGVAYDREEQTEGICAVGAVLRGVSVELVAVSVPVPAQRFYGREAELAGALLAWVSKVDAWFNGTEDRK | soluble
MGSDKIHHHHHHMTAANTQHVEHINECTLESVIDLIRDADKPMVFKGLCHHWPLVQAGLESAQSAMTYLRQFYQGMPVTAYYVPPEQHGRVFYNEQLDGFNYQAGRLDFNQLLDRLSQEMIKDMPAGMYMGSTDIHQCLPGLGAQNSLDLAPMQPLTSIWLGNQTKVAAHYDFPLNLACNVVGKRTFTLFPPEQISNLYVGPMELAPGGQDISLVDMANPDFERFPRFQHALDASLTAELSPGDVLFIPSMWWHHVRGVDDFNVLITHWWRDTPGFLGRPNNALLHSILSLRSLPKAQRQAWKSIFEHYIFDHDDVDDSHIPDNVKGMQTKPLDELTARKIRADLINKLKR | not soluble
MSLTHVIWDMGETLNTVPNTRYDHHPLDTYPEVVLRKNAKETLEKVKQLGFKQAILSNTATSDTEVIKRVLTNFGIIDYFDFIYASNSELQPGKMEKPDKTIFDFTLNALQIDKTEAVMVGNTFESDIIGANRAGIHAIWLQNPEVCLQDERLPLVAPPFVIPVWDLADVPEALLLLKKISEGHHHHHH | soluble
MEGISNFKTPSKLSEKKKSVLCSTPTINIPASPFMQKLGFGTGVNVYLMKRSPRGLSHSPWAVKKINPICNDHYRSVYQKRLMDEAKILKSLHHPNIVGYRAFTEANDGSLCLAMEYGGEKSLNDLIEERYKASQDPFPAAIILKVALNMARGLKYLHQEKKLLHGDIKSSNVVIKGDFETIKICDVGVSLPLDENMTVTDPEACYIGTEPWKPKEAVEENGVITDKADIFAFGLTLWEMMTLSIPHINLSNDDDDEDKTFDESDFDDEAYYAALGTRPPINMEELDESYQKVIELFSVCTNEDPKDRPSAAHIVEALETDV | soluble
MSLTHLFYLTRGAPLSLKENYYPWLKAGSFFPDALYSCAPSNKDWSDFAEFTHWPNFLMIAVSYWQQKYGQNDRLRGTHGSLALKSFLIGVFTHQIVDVSWHSLVTDYRMHGLLRVLSETEFDGDIETAHTFLDVMGEFLTLNNVIRDSNNNENWDFLTRSDWKLPREEDLMEIIRNAGLSKEKLSYAELEFCVKRGMAAAISEGYLFRSQRNQLLTNIYSTSPRANDLILNHWLGGQSNLVAMLQRCVPFFETLFHDENTNEAQAEELRLCANLPPVSQKRINARPLVSSLKARKGNSHIVVSPMKSFSDFGTSLTMGKFREDNKDYLAVSAPLEDTVGAIYIVPWDILTVARKEDFSILQPITAMYGSKVGTYKASDVDYLLVSQPGTCTIDFYFKGVKILTIKDETTEEAHQLQFAVTGNFYDDKIPDLVVSSPSYGANETGIATFIPGSSIISYLTNSDKYQVVDISTFKGVINLDGYPMKIPFQHFGATIQISDTTDKQKLIYITCQSLGTVFVYSSNDLHDLSIPIYYITKNGVIPAKDSDHVEWHIIPSKEHGMFGAAIYSWNFEGMSFVAVSQPMFDTVFIYIEKSGQIEFFLKLVLKIKTKSDSIPDEFGSSLLFNDEEKKLYVSSPGSFDARGSIWKISMDELLKAGNDPKRKTLLINNLRHLMLINPDKSSKGVSNFGNSMILGPQNHLIVGIPQYGYGNFDHMQLTGRILVLEGHHHHHH | not soluble
MAVPESKEALIKAINSQFTLLMKKIDAVPAERAFSPEMAGHAQGTQMSPANLVAYLLGWGNVVLKWHEDEEQGKTIDFPEAGYKWNQLGLLAQKFYQDYAPITDWAELIALLAANKLALIALVERYTDEQLYGEGWYGKWTRGRMIQFNTAAPYKNAAGRLRTWEKNKLEHHHHHH | not soluble
CSSPQHASTVPGTTPSIWTGSPAPSGLSGHDEESPGAQSLTSTLTAPDGTKVATAKFEFANGYATVTIATTGVGKLTPGFHGLHIHQVGKCEPNSVAPTGGAPGNFLSAGGHYHVPGHTGTPASGDLASLQVRGDGSAMLVTTTDAFTMDDLLSGAKTAIIIHAGADNFANIPPERYVQVNGTPGPDETTLTTGDAGKRVACGVIGSG | soluble
MPIKSKANEVPKEEAGVKKETPKVARKATKKDTPKELKDKENAGDDNTPKQTKGRPGRPAAKRKNLDTPDVTEKLAMEEENPPKRRSSRLTRSTRSMAEDGSPSPEKEKPEKLPFIKYKGAIKYFTESQDIAASADDVLQWVEKQKDEVVPMAFDMEWPFSFQTGPGKSAVIQICVDEKCCYIYQLTNVKKLPAALVALINHPKVRLHGVNIKNDFRKLARDFPEVTAEPLIEKCVDLGLWCNEVCETGGRWSLERLTNFIAKKAMDKSKKVRMSKWHVIPLDENQLMYAAIDVYIGQVIYRELERREKVKIKNEEEFKEKNGDAAFKAMKALGETFLTKINEVTLLEHHHHHH | soluble
MSLNSLKHPKVRDTRDMWDIREELTSEQKKQEKLLAEINKYDKFVNSYSQTKEMTKETALNNTLQSLKKTAGMTDITGSGIVITISPLFSESLTGEPIENPPPDLLKKLINELNSYGAEHISINERRVVNHTVIRDINGTTKIDGYALDDYPLTVKVLAKDPDMLHSRVKGSGLEDLFASENLALKAGKSESKLTLKAYDRPLDVQQLKLLKDEGHHHHHH | soluble
MILHPRPSPIAAAMYQLRDIGVDAIILHGPSGCCFRTARLLEIDGIRVFTSAMGENDFIFGAMDKLRDVIAEVLEYLKKETPKSEKYKIGIVGTCASMIIGEDLESLIDDFDDIIIPVDIHSGLVDNTVGAIRAMDGALNAGLIDYSEYLEHHHHHH | not soluble
MAAVDSFQLLYREIARSCSGYVETLALVGACYMASKTVIFMRDCYSLIRLYFVPRLVRHRDLSQQYGQWAIICGASEAIAKAYAEELARHGICVILISKDLSSVSDTARLISNNYGVEAICIEADFNQGPSACKPIKDAISSKDIGFIVNSFDGTLEISQNFLELSESVLWGTIDRNIAATTLVTRLALPAMMERGRGAVVNISSGHCFHPIPRKAAFSASTAFLDNFSRSLQYEYGDQGVFVQSLLPFRVASQRPEGSAPPASWLVPSPQVYASHALSTLGISHRTTGYWPHSMQLGLVKMMPEWVWMLGSRVFTMAT | soluble
MKAKPSHQATSMSSSLRVSPSIHGYHFDTAARKKAVGNIFENIDQESLQRLFRNSGDKKAEERAKIIFAIDQDLEEKTRALMALKKRTKDKLLQFLKLRKYSIKVH | not soluble
SGELLGTLSISHDVTEWHKIQQNLRDEMERRKDTEVALAQRDTILQTILDASPDSIGIFNENMVYQACNKPFVNALGISEVSDLIGKRLQDVIPVEMYTRLETSDLHALRQAEPVRYIDKVVSSDGHITWFDVVKSPFKDKA | not soluble
MTTQITAEDVEAYLGTRENSPTMSDTVDAAVDLVESWKSTPQEKWPPRWRRGCIMLAARMDRRRNSPAGVDTMGEIGVVYVSRKDPDIAQLLEIGDFSKPIAR | not soluble
MEKKTNCIQNEEQKKEKELIAEKAAKAGFVNRLYVNIGQKVGVVELTKLEPRFERNIDKLTSYHNLIYKIVNVIELQVQFMPKAMAKKAVLCAPGENPWEVLGGWLNYLGKNQFDGQHSKMLEKYSSACGRIAQKEIQVQKRTRSHLIKKMRLYTGEESEILNSNVENLNNLLHAIDDSRHHVKSSKTTKEVKAKGETYRKAINAFNETANEVQALIDEVAMVVPLHENEFLKFSREASVYHDTVHNSLSEVIFRLGYHVKKH | not soluble
MEQPTRPGFATRRRTQLFDALVDLILVEGFAHLTLDEIANRLRCSKSTLYTLAGSKEQLVRAATVHFFRRATDDVESHIEPIAGARERITAYLSAVGTALSAASDQFMADLDAFPPAREVYERNTQFAAGRVQELITEGVAGGDFRDVHAAFAADLAATMMVRIQQRGVRDSTGLDDAHAYAELAAILTGGISA | not soluble

Reference: the DeepSol protein solubility set
